Assay results published in patent publication US20230372448A1, “THERAPEUTIC USE OF LONG-ACTING CONJUGATE OF TRIPLE AGONIST ACTING ON ALL OF GLUCAGON, GLP-1 AND GIP RECEPTORS AGAINST MULTIPLE SCLEROSIS” (HANMI PHARM. CO. ,LTD., priority 2020, published 2023).
Changes are numbered by the printed parent chain. Positions of bridges follow the written chain, without caps; N, C: chain ends. Non-standard residues stand in square brackets, D forms with d. No end group written: not given here. *: point of attachment. Acetyl(2-(4-imidazolyl)) = O=C(Cc1c[nH]cn1)*; Aib = CC(C)(N)C(=O)O

B1: triple agonist of SEQ ID NO: 44 (peptide)
peptide: HGQGTFTSDCSKQLDGQAAQEFVAWLLAGGPSSGAPPPS
modifications: ends and bridges not checked
B2: triple agonist of SEQ ID NO: 46 (peptide)
peptide: B1 peptide with Q13Y, G16E, A18H
modifications: ends and bridges not checked
B3: triple agonist of SEQ ID NO: 48 (peptide)
peptide: B1 peptide with Q13Y, A18R, E21D, A24N
modifications: ends and bridges not checked
B4: triple agonist of SEQ ID NO: 45 (peptide)
peptide: B1 peptide with Q13Y, L14M, E21D
modifications: ends and bridges not checked
B5: triple agonist of SEQ ID NO: 47 (peptide)
peptide: B1 peptide with Q13Y, A18R
modifications: ends and bridges not checked
B6: triple agonist of SEQ ID NO: 39 (peptide)
peptide: H[Aib]QGTFTSDYSKYLDGQHAQCFVAWLLAGGGPSSGAPPPS
modifications: also: ring from underlined residues, positions not shown
B7: triple agonist of SEQ ID NO: 56 (peptide)
peptide: H[Aib]QGTFTSDYSKYLDEKRQKEFVNWLLAQC
modifications: bridge 16-20
B8: triple agonist of SEQ ID NO: 58 (peptide)
peptide: H[Aib]QGTFTSDYSKYLDEKRQKEFVQWLLNTKC
modifications: bridge 16-20; not fully specified
B9: triple agonist of SEQ ID NO: 6 (peptide)
peptide: H[Aib]QGTFTSDVSSYLDGQAAKEFVAWLLKGC
modifications: not fully specified
B10: triple agonist of SEQ ID NO: 52 (peptide)
peptide: H[Aib]QGTFTSDYSKYLDEKRQKEFVQWLLDTC
modifications: bridge 16-20; not fully specified
B11: triple agonist of SEQ ID NO: 49 (peptide)
peptide: {Acetyl(2-(4-imidazolyl))}-[Aib]QGTFTSDYSICMDEIHQKDFVNWLLNTK
modifications: bridge 15-19; not fully specified
B12: triple agonist of SEQ ID NO: 36 (peptide)
peptide: H[Aib]QGTFTSDYSKYLCEKRQKEFVQWLLNGGPSSGAPPPSG
modifications: bridge 16-20
B13: triple agonist of SEQ ID NO: 5 (peptide)
peptide: H[Aib]QGTFTSDVSSYLLGQQQKEFIAWLVKGGGPSSGAPPPSC
modifications: not fully specified
B14: triple agonist of SEQ ID NO: 59 (peptide)
peptide: {Acetyl(2-(4-imidazolyl))}-[Aib]QGTFTSDYSICMDEKHQKDFVNWLLNTK
modifications: bridge 15-19; not fully specified
B15: triple agonist of SEQ ID NO: 54 (peptide)
peptide: H[Aib]EGTFTSDYSIAMDEIHQKDFVDWLLAEC
modifications: bridge 16-20; not fully specified
B16: triple agonist of SEQ ID NO: 60 (peptide)
peptide: {Acetyl(2-(4-imidazolyl))}-[Aib]QGTFTSDYSIAMDEKHCKDFVNWLLNTK
modifications: bridge 15-19; not fully specified
B17: triple agonist of SEQ ID NO: 40 (peptide)
peptide: H[Aib]QGTFTSDKSKYLDERACQDFVQWLLDGGPSSGAPPPS
modifications: not fully specified
B18: triple agonist of SEQ ID NO: 4 (peptide)
peptide: H[Aib]QGTFTSDVSSYLLGQQQKEFIAWLVKGC
modifications: not fully specified
B19: triple agonist of SEQ ID NO: 35 (peptide)
peptide: H[Aib]QGTFTSDYSIAMDEIHQKDFVNWLLNTKC
modifications: bridge 16-20; not fully specified
B20: triple agonist of SEQ ID NO: 34 (peptide)
peptide: H[Aib]QGTFTSDYSKYLDEKRQKEFVNWLLAQKC
modifications: bridge 16-20; not fully specified
B21: triple agonist of SEQ ID NO: 38 (peptide)
peptide: {Acetyl(2-(4-imidazolyl))}-[Aib]QGTFTSDKSSYLDERAAQDFVQWLLDGGPSSGAPPPSS
modifications: not fully specified; also: ring from underlined residues, positions not shown
B22: triple agonist of SEQ ID NO: 1 (peptide)
peptide: H[Aib]QGTFTSDVSSYLDGQAAKEFIAWLVKGC
modifications: not fully specified
B23: triple agonist of SEQ ID NO: 51 (peptide)
peptide: H[Aib]QGTFTSDYSKYLDEKRQKEFVQWLLNTC
modifications: bridge 16-20; not fully specified
B24: triple agonist of SEQ ID NO: 37 (peptide)
peptide: H[Aib]QGTFTSDYSKYLDECRQKEFVQWLLNGGPSSGAPPPSG
modifications: bridge 16-20
B25: triple agonist of SEQ ID NO: 50 (peptide)
peptide: H[Aib]QGTFTSDYSKYLDEKRAKEFVQWLLDHHPSSGQPPPSC
modifications: bridge 16-20; not fully specified
B26: triple agonist of SEQ ID NO: 41 (peptide)
peptide: H[Aib]QGTFTSDKSKYLDECAAQDFVQWLLDGGPSSGAPPPS
modifications: not fully specified
B27: triple agonist of SEQ ID NO: 42 (peptide)
peptide: Y[Aib]QGTFTSDYSKYLDEKRAKEFVQWLLDHHPSSGQPPPSC
modifications: bridge 16-20; not fully specified
B28: triple agonist of SEQ ID NO: 43 (peptide)
peptide: Y[Aib]QGTFTSDYSKYLDEKRAKEFVQWLLDHHCSSGQPPPS
modifications: bridge 16-20; not fully specified

Assays:
Test in all cases: cell-based or functional assay
human GCG receptor = human GCG receptor (human, UniProt P47871 26-477)
human GLP-1 receptor = human GLP-1 receptor (human, UniProt P43220 24-463)
human GIP receptor = molecular target: T1, human GIP receptor (human, UniProt P48546 22-466)
T1 sequence (looked up): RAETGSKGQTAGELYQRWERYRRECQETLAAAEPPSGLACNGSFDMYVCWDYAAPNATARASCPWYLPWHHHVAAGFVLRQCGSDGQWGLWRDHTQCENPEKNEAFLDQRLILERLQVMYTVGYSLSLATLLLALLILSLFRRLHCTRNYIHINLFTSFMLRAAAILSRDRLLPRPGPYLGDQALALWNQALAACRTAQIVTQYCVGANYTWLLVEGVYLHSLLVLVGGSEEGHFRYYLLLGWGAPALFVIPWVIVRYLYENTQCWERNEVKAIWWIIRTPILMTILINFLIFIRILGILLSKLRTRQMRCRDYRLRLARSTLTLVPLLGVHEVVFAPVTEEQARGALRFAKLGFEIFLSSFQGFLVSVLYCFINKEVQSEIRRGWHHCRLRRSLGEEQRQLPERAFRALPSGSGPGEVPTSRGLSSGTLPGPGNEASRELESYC

human GCG receptor, sequence (P47871 26-477): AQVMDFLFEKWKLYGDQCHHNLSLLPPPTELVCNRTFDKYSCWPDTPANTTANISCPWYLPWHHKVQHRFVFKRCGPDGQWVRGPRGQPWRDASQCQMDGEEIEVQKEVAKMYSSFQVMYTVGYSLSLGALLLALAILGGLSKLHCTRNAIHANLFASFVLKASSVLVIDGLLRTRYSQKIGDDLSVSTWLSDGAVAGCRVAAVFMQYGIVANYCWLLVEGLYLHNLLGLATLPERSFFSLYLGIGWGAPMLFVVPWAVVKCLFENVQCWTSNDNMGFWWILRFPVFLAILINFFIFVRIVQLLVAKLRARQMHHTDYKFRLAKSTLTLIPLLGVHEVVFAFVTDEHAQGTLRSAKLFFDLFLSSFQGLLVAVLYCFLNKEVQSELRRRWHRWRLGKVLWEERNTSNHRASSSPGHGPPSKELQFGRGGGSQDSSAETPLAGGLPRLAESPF

Binder	In vitro activity (%) compared with native peptide: vs Glucagon (human GCG receptor) [%]	In vitro activity (%) compared with native peptide: vs GLP-1 (human GLP-1 receptor) [%]	In vitro activity (%) compared with native peptide: vs GIP (human GIP receptor) [%]
B1	< 0.1	1.3	< 0.1
B2	< 0.1	1.4	< 0.1
B3	< 0.1	1.5	< 0.1
B4	< 0.1	6.6	< 0.1
B5	< 0.1	2.4	< 0.1
B6	0.53	13.9	< 0.1
B7	4.9	57.9	0.8
B8	2.6	39.1	0.2
B9	< 0.1	17	< 0.1
B10	7.5	44.1	0.3
B11	< 0.1	29.8	3.3
B12	0.39	37.4	0.2
B13	< 0.1	42.1	< 0.1
B14	< 0.1	40.3	4
B15	1.4	30.6	0.1
B16	< 0.1	106	8.2
B17	< 0.1	75.2	< 0.1
B18	< 0.1	8.5	< 0.1
B19	< 0.1	7.5	1.3
B20	0.92	19.1	0.6
B21	–	2.3	–
B22	< 0.1	3.2	< 0.1
B23	2	14.4	0.1
B24	6.21	236	2.2
B25	50.5	67.4	2.7
B26	< 0.1	34.3	< 0.1
B27	206	33.9	7.8
B28	88.4	12.6	3.7
